The values that follow come from the nanobody polyreactivity screen of Harvey et al. (2022).

This data set is described as follows: yeast display, Sf9 membrane polyspecificity reagent, FACS + sequencing; frameworks hold sequencing errors. In outline: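 A synthetic nanobody library was expressed on Saccharomyces cerevisiae BJ5465 by galactose induction for 36–48 hours. The library was stained for 1 hour at 4 °C with 10% biotinylated, detergent-solubilized Sf9 membrane reagent and enriched with streptavidin microbeads before FACS. Low and high (top ~1%) gates were set on anti-HA fluorescence for expression and streptavidin fluorescence for reagent binding, and each polyreactivity label reflects the gate of origin.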
Take “QVQLVESGGGLVQAGGSLRLSCAASGRTFPYYAMGWYRQAPGKERELVAAISYSGGTTYYADSVKGRFTISRDNAKNTVYLQMNSLKPEDTAVYYCAAERAILSSDKQSLWRFDYWGQGTQVTVSS”: the “polyreactivity (PSR sort gate)” value is “low polyreactivity”.

Take “QVQLVESGGGLVQAGGSLRLSCAASGRTFYYYAMGWYRQAPGKERELVAAISRSGGITYYADSVKGRFTISRDNAKNTVYLQMNSLKPEDTAVYYCAADAWFSLRYAPRSYAYGYWGQGTQVTVSS”: the “polyreactivity (PSR sort gate)” value is given as “low polyreactivity”. As to “QVQLVESGGGLVQAGGSLRLSCAASGGTLRYYAMGWYRQAPGKEREFVASISRSGGSTYYADSVKGRFTISRDNAKNTVYLQMNSLKPEDTAVYYCAAYWSPGYTTRRGYWGQGTQVTVSS”, the “polyreactivity (PSR sort gate)” value is on record as “high polyreactivity”. In the case of “QVQLVESGGGLVQAGGSLRLSCAASRIFAYYTMGWIRQSPGKERELVAAITYSGGSTFYADSVKGRFTISRDNAKNTVYLQMNRLKPEDSSVYYCNAVVRNYGYDYWGQGTQVTVSS” it was “high polyreactivity”; in that of “QVQLVESWGGLVQAGGSLRLSCAASGNTIIRYAMGWYSQAPGKERELVAAISRSGGRTYYADSVKGRFTISRDNAKNTVYLQMNSLKPEDTAVYYCAAKIYIPRGYDYWGQGTQVTVSS”, “high polyreactivity”. In the case of “QVQLVESGGGLDQAGGSLRLSCAASGRTFYRNVMGWYRQAHGKERELVAAISSRGGSTYYADSVKGRFTISRDNAKNTVYLQMNSLKPEDTAVYYCAAYYYRRRYGGKYDYWGQGTQVTVSS”, the “polyreactivity (PSR sort gate)” value was “high polyreactivity”. In the case of “EVQLVESGGGLVHAGGSLRLICAASGFTFTGYTMGWYRQAPGKERELVATISGSGGNTYYADSVKGRFTISRDNAKNTVYLQINSVKPEDTAVYYCARLRSGPRVLYYYWGQGTQVTVSS”, the “polyreactivity (PSR sort gate)” value is on record as “low polyreactivity”.

Take “QVQLVESGGGLVQAGGSLRLSCAASGGTFYDYAMGWYRQAPGKERELVAAISASGDSTYYADSVKGRFTISRDNAKNTVYLQMNSLKPEDTAVYYCAAEFTAFDGFDYWGQGTQVNVSS”: the “polyreactivity (PSR sort gate)” value is recorded as “low polyreactivity”. In the case of “QVQLVESGGGLVQAGGSLRLSCAAYGRIFYRNAMGWYRQAPGKERELVAAISRSGGSTYYADSVKGRFTISRDNAKNTVYLQMNSLNPEDTAVYYCNAYRYLQSGPPRYREHGSWGQGTQVTVSS”, the “polyreactivity (PSR sort gate)” value is given as “low polyreactivity”.

Turning to “QVQLVESGGGLVQAGGSLRLSCAASGRTFPAYAMGWYRQAPGKERELVASIDLSGGSTSYADSVKGRFTISRDNAKNTVYLQMNSLKPEDTAVYYCAKKGRWSSASSGYYYWGQGTQVTVSS”, the “polyreactivity (PSR sort gate)” value was “low polyreactivity”. With “QVQLVETGGGLVQAGGSLRLSCAASGFTFTVYATGWYRQAPGKERELVAAIRWSGGSTSYADSVKRRFTISRDNAKNTVYLQMNSLKPEDTAVYYCNARISDAHYQSNYFLVLYDYWGQGTQVTVSS”, the “polyreactivity (PSR sort gate)” value was “low polyreactivity”. To “QVQLVESGGGLVQAGGSLRLSCAASGFTFGSYAMGWYRQAPGKEREFVAAITRSGGRTYYADSVKGRFTISRDNAKNTVYLQMNSLKPEDTAVSYCNAYRSALYTPEYDYWGQGTQVNVSS” belongs “high polyreactivity”; to “QVQLVESGGGLVQAGGSLRLSCATSGNIFWRYSIRWYRQAPGKEREFVAGISLRGSSTYYADSVKGRFTISRDNAKNTVYLEMNSLKPEDTAVYYCAVRQPRGSTVFYGGNYWGQGTQVTVSS”, “low polyreactivity”; to “QVQLVESGGGLVQAGGSLRLSCAASGITLGRYAMGWYRQAPGKERELVAAISRSGGSTYYADSVKGRFTISRANAKTTVYLQMNSLKPEDTAVYYCNRRVYPTSDYDYWGQGTQVTVSS”, “high polyreactivity”.

As to “QVQLVESGGGLVQAGGSLRLSCAASGYIFRGYVMGWYRQAPGKERELVAAITSSGGSTYYADSVKGRFTISRDNAKNTVYLQMISLKPEDTAVYYCAARGYSPHYYWGQGTQVTVSS”, the “polyreactivity (PSR sort gate)” value is reported as “high polyreactivity”.

On to “QVQLVESGGGLVQAGGSLRLSCAASGSIFLYYAMGWYRPAPGKDRELVAAIRRGGNTNYADSVKGRFTISRDNAKNTVYLQMNSLKPVDTAVYYCAAAQYSRYSRVPNYYAGTYYYWGQGTQVTVSS”, for which the “polyreactivity (PSR sort gate)” value is “low polyreactivity”.

For the sequence “QVQLEESGGGLVQAGGSLRLSCPASGLTFDCYAMGWYRQAPGKERELVAAITSVGSTYYADSVKGRFTISRDNAKNTVYLQMTSLKPEDTAVYYCAVEGVIWCFWPYEYWGQGTQVTVSS”, the “polyreactivity (PSR sort gate)” value was “high polyreactivity”.

Take “QVQLVESGGGLVQAGGSLRLSCAASGSTFGLYAMGWYRQAPGKEREFVAAISYSGSSTYYADSVKGRFTISRDNAKNTVYLQMNSLKPSDTAVYYCAARRSEHGYTYWGQGSQVTVSS”: the “polyreactivity (PSR sort gate)” value is on record as “high polyreactivity”. Turning to “QVLLVESGGGLVQAGGSLRLSCAASGGTFLFYGMGWYRQAPGKERELVAVITWSGGSTYYADSVKGRFTISRDNAKNTVNLQMNSLKPEDTAVYYCNAANTGSPDYQSIGYNFNYWGQGTQVTVSS”, the “polyreactivity (PSR sort gate)” value is on record as “low polyreactivity”. For the sequence “QVQLVDSGGGLVQAGGSLRLICAASGSTFNYYAMGSYRQAPGKERELVAAISYSSGRTYYADSVKGRFTISRDNSKNTVYLQMNSMKPEDTAVYYCAADRYMVSSSVHSFGYWGQGTQVTVSS”, the “polyreactivity (PSR sort gate)” value was “high polyreactivity”. In the case of “QVQLVESGGGLVQAGGSLRLSCAASGFTLDWYVMGWYRQAPGKERELVAAISSSGGRTYYADSVKGRFTISRDNAKNTVYLQMNSLKPEDPAVYYCAARNKYGGYPYGYDYWGQGTQVTVSS” it was “high polyreactivity”; in that of “QVQLVESGGGLVQAGGSLRLSCAASGSTFAVNAMGWYRQAPGKERELVAVITGNGANTYYADSVKGRFTISRDNAKNTVYLQMNSLKPEDTAVYYCNARLFSQSHYYYWGQGTQVTVSS”, “high polyreactivity”. In the case of “QVQLVESGGGLVQAGGSLRLSCAASGRTFYDYAMGWYRQAPGKERELVAAITSGGSTNYADSVKGRFTISRDNAKNTVYLQMNSLKPEDTAGYYCAADDFYVWGFDMNYWGQGTQVTVSS” it was “high polyreactivity”; in that of “QVQLVESGGGLVQAGGSLRLSCAASGGTFYQYAMGWYIQAPGKERELVAAISRSGGRTYYADSVKGRFTISRDNAKNTVYLQMNSLIPEDTAVYYCAADDVGPPDFYYWGQGTQVTVSS”, “high polyreactivity”; in that of “QVQLVESGGGLVQAGGSLRLSCAASGFTFRKYAMGWYRQAPGKERELVAVINIVGSTYYADSVKGRFTISRDNAKNTVYLQMNSRKPEDTAVYYCAADWSYLLKYYWYGGFNYWGQGTQVTVSS”, “high polyreactivity”. Consider “QVQLVESGGGLVQAGGSLRLSCAASGFTFDANAMGWYRQAPGKERELVAAITRFGSTFYADSVKGRFTISRDNAKNTVYLQMNSLKPEDTAVYYCNAARDHVSGYDYWGQGTQVTVSS”, for which the “polyreactivity (PSR sort gate)” value is given as “low polyreactivity”. In the case of “QVQLQESGGGLVQAGGSLLSCAASGTISWVDEMGWYRQAPGNERELVAGIAGGGNTNYADSVKGRYTISRDNAKNTVYLQMNSLDTAVYYCAVVGFGRGTHIYWGQGTQVTVSS” it was “high polyreactivity”; in that of “QVQLVESGGGLVQAGGSLRLSCAASGLTISWYAMGWYRQAPGKEWELVAAISTRGGRTYYADSVKGRFTISRDNAKNTVYLQMNSRKQEDNAVYYCAAGVYYRYLWLFDYWGQGTQVTVSS”, “high polyreactivity”; in that of “QVQLVESGGCLVQAGGSHRLSCAASGYIVWENAMGWYRPAPGKERELVAAITVTGGGTYYADSVKGRFTISRDNSKNPGYLHMNSLKPEDTAVYYCAPDEDNPWLWFYYWGQGTQVTVSS”, “low polyreactivity”.

As for “QVQLVESGGGLVQAGGSLRLSCAASGRIIAIYAMGWYRPAPGKERELVAAISWNSGRTNYADSVKGRFTISRDNAKNTVYLQMNSLKPEDTAVYYCAADGDRYLVSTSYPEYDYWGQGTQVTVTS”, the “polyreactivity (PSR sort gate)” value is given as “low polyreactivity”.

“QVQLVESGGGLVQAGCSLRLSCAASGGTFYVNAMGCYRQAPGKDRELVAGIRESGASTYYADSVKGRFTISLDNAKNTVYLQMNSLKPEDTAVYYCAVDGPYPAASQSEVGYDYWGQGTQVTVSS”: the “polyreactivity (PSR sort gate)” value is listed as “low polyreactivity”. With “QVQLVESGGGLVQAGGSLRLSCAASGLTFSPYAMGWYRQAPGKERELVAAISYSGGSTYYADSVKGRFTISRDNAKNTVYLQMISLKPEDTAVYYCAVVVPNLLRDGRRMYYWGQGTQVTVSS”, the “polyreactivity (PSR sort gate)” value is “high polyreactivity”. To “QVQLVESGGGLVQAGGSLRLICAASGGIFGSYAMGWYRQAPGKEREFVAAIRYGSGSTYYADSVKGRFTISRDNAKNTVYLQMNSLKPEDTAVYYCATEYWGVYGYGFIYDYWGQGTQVTVSS” belongs “low polyreactivity”.

For the sequence “QVQLVESGVGLVQAGGSLRLSCAASGITFRSYAMGWYRQAPGKERELVAAIRSGGSTSYADSVKGRFTISRDNAKNTVYLQMNSLKPEDTAVYYCAAGGYVPLPDITFWKFGYWGQGTQVTVSS”, the “polyreactivity (PSR sort gate)” value is “low polyreactivity”.

Take “QVQLVESGGGLVQAGGSLRLSCAASGRIFSYYARGWYRQAPGKERELVATINSGGSTNYADSVKGRFTISRDNAKNTVYLLMNSLKPEDTAVYYCAASPVWWYDYWGQGTQVTVSS”: the “polyreactivity (PSR sort gate)” value is on record as “low polyreactivity”.

Consider “QVQLVESGGGLVQAGGSLRLSCAASGSTFTGYTKGWYRQAPGKERELVAAITYRGGSTYYADSVKGRFTISRDNAKNTVYLQMNSLKPEDTAVYYCAAVPEYYEYSPYDYWGQGTQVTVSS”, for which the “polyreactivity (PSR sort gate)” value is on record as “low polyreactivity”. Turning to “QDQLVESGGGLVQAGGSLRLSCAAYGRTLRRYAMGWYRQAPGKERELVAAISRSGSSTYADSVKGRFTISRDNAKNTVYLQMNSLKPEDTAVYYCNAYQPRYGYWGQGTQVTVSS”, the “polyreactivity (PSR sort gate)” value is given as “high polyreactivity”. Consider “QVQLVESGGGLVQAGGSLRLSCAASGSIFAVYAMGWYRQAPGKERELVASISRTGTTNYADSVKGRFTISRDNAKNTVYLQMNSLKPEDSAVYYCNADAYLYYKYHWGFTFYQYVYWGQGTEVTVSS”, for which the “polyreactivity (PSR sort gate)” value is listed as “low polyreactivity”. For “QVHLVESGGGLVQAGGSLRLSCAASGRTIHSYAMGWYRQAPGKERELVAAINNGGGTYYADSVKGRFTISRDNAKNTVYLQMNSRKPEDTAVYYCAAATRKRIGSYYYWGQGTQVTVSS”, the “polyreactivity (PSR sort gate)” value was “high polyreactivity”.

As for “QVQLVESGGGLVQAGGSLRLSCAASGRISYYAMGWYRQAPGKERELVAVISSRGGSTYYADSVKGRFTISRDNAKNTVYLQMNSLKPEDTAVYYCAADLYYDAWRLYVLGYATMDYWGQGTQVTVSS”, the “polyreactivity (PSR sort gate)” value is “high polyreactivity”.
